The values that follow come from publication PMC7611867.

Where two headings read alike, the source gives them in different places.

Series [1] concerns the target T1, Spo11;Rec102;Rec104;Ski8 (Saccharomyces cerevisiae;Saccharomyces …, UniProt P23179;Q02721;P33323;Q02793 1-398;1-264;1-182;1-397, |||). The experiment in a line: EMSA.
Series [2] addresses T1, Spo11;Rec102;Rec104;Ski8. The experiment in a line: EMSA. The source holds these as a separate data set. (In general: A gel shift assay detects complexes by their altered migration in electrophoresis.)

T1 sequence (P23179 whole entry, chain 1 of 4): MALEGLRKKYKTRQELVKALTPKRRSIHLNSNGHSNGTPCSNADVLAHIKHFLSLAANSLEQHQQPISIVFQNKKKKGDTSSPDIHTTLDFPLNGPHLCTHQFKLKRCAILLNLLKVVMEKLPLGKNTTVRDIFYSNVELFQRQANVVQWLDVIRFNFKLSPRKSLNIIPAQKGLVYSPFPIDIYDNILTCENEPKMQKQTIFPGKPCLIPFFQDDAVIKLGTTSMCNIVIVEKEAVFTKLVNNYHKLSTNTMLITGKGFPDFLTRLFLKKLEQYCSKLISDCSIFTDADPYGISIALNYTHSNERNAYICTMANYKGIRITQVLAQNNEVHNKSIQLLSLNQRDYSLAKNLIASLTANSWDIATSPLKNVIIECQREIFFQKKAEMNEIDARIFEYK
T1 sequence (Q02721 whole entry, chain 2 of 4): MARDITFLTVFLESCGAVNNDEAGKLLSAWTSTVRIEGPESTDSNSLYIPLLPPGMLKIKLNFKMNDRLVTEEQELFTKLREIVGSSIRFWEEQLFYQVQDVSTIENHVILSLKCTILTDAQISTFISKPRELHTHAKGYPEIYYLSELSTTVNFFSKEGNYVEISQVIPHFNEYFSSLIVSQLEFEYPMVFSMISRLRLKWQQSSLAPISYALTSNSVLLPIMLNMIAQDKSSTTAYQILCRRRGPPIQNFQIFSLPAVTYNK
T1 sequence (P33323 whole entry, chain 3 of 4): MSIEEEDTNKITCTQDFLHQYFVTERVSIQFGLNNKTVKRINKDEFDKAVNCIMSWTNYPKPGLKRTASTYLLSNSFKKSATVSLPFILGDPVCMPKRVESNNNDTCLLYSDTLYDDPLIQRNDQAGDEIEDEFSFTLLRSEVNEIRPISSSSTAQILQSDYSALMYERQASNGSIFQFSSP
T1 sequence (Q02793 whole entry, chain 4 of 4): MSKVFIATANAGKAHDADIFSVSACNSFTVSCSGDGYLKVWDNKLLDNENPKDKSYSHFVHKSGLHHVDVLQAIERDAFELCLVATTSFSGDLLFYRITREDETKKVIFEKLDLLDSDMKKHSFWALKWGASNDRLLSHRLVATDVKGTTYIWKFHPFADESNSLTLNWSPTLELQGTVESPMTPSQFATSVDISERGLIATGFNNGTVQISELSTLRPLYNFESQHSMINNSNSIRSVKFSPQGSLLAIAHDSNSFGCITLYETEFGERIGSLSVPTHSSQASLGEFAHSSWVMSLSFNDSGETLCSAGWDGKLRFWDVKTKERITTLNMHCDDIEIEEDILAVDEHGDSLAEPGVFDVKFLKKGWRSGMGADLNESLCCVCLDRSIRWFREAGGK

B1: 33 bp (dsDNA)
DNA 1: TAGCAATGTAATCGTCTATGACGTGCATAGCGC
DNA 2: TAGCGCTATGCACGTCATAGACGATTACATTGC
For B1, the binding result with Spo11;Rec102;Rec104;Ski8 [1] is on record as “binds”.

B2: 24 bp (dsDNA)
DNA 1: TAGCAATGTAATCGTCTATGACGT
DNA 2: TAACGTCATAGACGATTACATTGC
As to B2, the binding result with Spo11;Rec102;Rec104;Ski8 [1] is “binds”.

B3: 31 bp (dsDNA)
DNA 1: TAGCAATGTAATCGTCTATGACGTGTAGCGC
DNA 2: TAGCGCTACACGTCATAGACGATTACATTGC
Regarding B3, the binding result with Spo11;Rec102;Rec104;Ski8 [1] is “binds”.

B4: 34 bp (dsDNA)
DNA 1: TAGCAATGTAATCGTCTATGACGTGTCATAGCGC
DNA 2: TAGCGCTATGACACGTCATAGACGATTACATTGC
For B4, the binding result with Spo11;Rec102;Rec104;Ski8 [2] was “binds”.

B5: 25 bp (dsDNA)
DNA 1: TAGCAATGTAATCGTCTATGACGTT
DNA 2: TAAACGTCATAGACGATTACATTGC
As for B5, the binding result with Spo11;Rec102;Rec104;Ski8 [1] was “binds”.

B6: 32 bp (dsDNA)
DNA 1: TAGCAATGTAATCGTCTATGACGTGATAGCGC
DNA 2: TAGCGCTATCACGTCATAGACGATTACATTGC
As for B6, in the series with Spo11;Rec102;Rec104;Ski8 [1], the binding result was “binds”.

B7: 30 bp (dsDNA)
DNA 1: TAGCAATGTAATCGTCTATGACGTTAGCGC
DNA 2: TAGCGCTAACGTCATAGACGATTACATTGC
Regarding B7, the binding result with Spo11;Rec102;Rec104;Ski8 [1] is recorded as “binds”.
